From patent US20260217845A1 (ODYSSEY THERAPEUTICS, published 2026)

Columns and labels:
[1] = biological target: T1, mouse TNFR2 (extracellular domain) (mouse, UniProt P25119 23-258); test: SPR (Carterra LSA), V-body coupled to HC200M chip, TNFR2 extracellular domain in solution
T1 construct: also called mTNFR2
T1 sequence: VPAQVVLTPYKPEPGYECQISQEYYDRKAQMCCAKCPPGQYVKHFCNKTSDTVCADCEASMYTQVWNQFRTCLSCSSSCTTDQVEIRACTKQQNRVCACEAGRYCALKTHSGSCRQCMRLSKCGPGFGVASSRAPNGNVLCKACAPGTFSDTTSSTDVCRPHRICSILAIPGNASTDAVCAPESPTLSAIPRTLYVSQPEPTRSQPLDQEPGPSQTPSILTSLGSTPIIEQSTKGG
Procedure: (§1) Binding affinities of the V-bodies to their respective target was determined by surface plasmon resonance (SPR) using a Caterra LSA instrument. Affinity purified V-bodies were covalently crosslinked onto an LSA HC200M chip using EDC/Sulfo NHS. The interaction with human, cynomolgus, and mouse TNFR2 (extracellular domain) (V-body coupling concentration: human, […]; cynomolgus/mouse, 4 μM) was measured under physiological conditions (Running Buffer: HBST-50 mM HEPES pH 7.4, 150 mM NaCl, 0.1% (w/v) BSA, 0.05% (v/v) Tween20, 25° C.) using eight different antigen concentrations (3-fold serial dilutions, start at 200 nM). Resulting sensorgrams (FIGS. 9A-9F) were analyzed and equilibrium-binding affinities (KDs) were calculated using Carterra's data analysis software.

[2] = biological target: T2, human TNFR2 (extracellular domain) (human, UniProt P20333 23-257); test: SPR (Carterra LSA), V-body coupled to HC200M chip, TNFR2 extracellular domain in solution, 8 concentrations from 200 nM
T2 construct: also called hTNFR2; human tumor necrosis factor receptor 2
T2 sequence: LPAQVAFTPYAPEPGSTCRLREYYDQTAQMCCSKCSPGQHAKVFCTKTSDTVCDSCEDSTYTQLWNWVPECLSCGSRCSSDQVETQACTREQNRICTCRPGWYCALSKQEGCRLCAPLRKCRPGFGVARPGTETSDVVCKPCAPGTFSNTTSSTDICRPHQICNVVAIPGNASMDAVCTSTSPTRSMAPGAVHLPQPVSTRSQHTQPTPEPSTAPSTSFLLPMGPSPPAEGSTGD
Procedure: as §1

Binder	binding result [1]	binding result [2]
ODY-37C7 (VHH) VHH: EVQLVESGGGLVQPGGSLRLSCAASGFTFDDIAMTWVRQAPGKGLEWVSSIYSYGPNTYYADSVKGRFTISTDSAKNTLYLQMNSLKPEDTAVYYCAADSDLSTVVVGPHDYWGQGTQVTVSS	no binding (tested: 200 nM (highest antigen concentration))	binds
ODY-35A10 (VHH) VHH: EVQLVESGGGLVEAGGSLRLSCAASGRTFGSYTMGWFRQAPGREQEFLASIRRTGGSTSYADSVKGRFTISRDNAKKAVYLQMNSLKPEDTAVYYCAAAPTGRAFTYWGQGTQVTVSS	no binding (tested: 200 nM (highest antigen concentration))	binds
ODY-33D4 (VHH) VHH: EVQLVESGGGLVQAGGSLRLSCAASGRTFSDYGMGWFRQAPGKDSEFVAAINWSNGRTNYADSVKGRFTISRDNAKNTGYLEMNSLKVEDTAVYYCAATPSGKAYSYWGQGTQVTVSS	no binding (tested: 200 nM (highest antigen concentration))	binds
ODY-31G3 (VHH) VHH: EVQLVESGGGLVQAGGSLRVSCAASGSIFRADAMGWHRQVPGKPREFVAGIRSDGFTNYAEAVKGRFTISWDTVKNTVYLQMNSLKPEDTAVYTCYYQSLSSPNYGQVFWGQGTQVTVSS	no binding (tested: 200 nM (highest antigen concentration))	binds
ODY-31D6 (VHH) VHH: EVQLVESGGGLVQAGGSLRLSCAASGSIVSTNGMGWHRQVPGKGRELVAGIRSDGFTNYADSVKGRFTISSDNVKNTVYLQMNSLKAEDSGVYFCYYQALSSPNYGQTFWGQGTQVTVSS	no binding (tested: 200 nM (highest antigen concentration))	binds
